Sequences and labels used below:
B1: Munc18c (endogenous) [mouse (endogenous in 3T3-L1 and PTP1B KO adipocytes)] / Protein-tyrosine phosphatase 1B substrate-trapping [not stated] (parent)
chain 1: MAPPVSERGLKSVVWRKIKTAVFDDCRKEGEWKIMLLDEFTTKLLSSCCKMTDLLEEGITVIENIYKNREPVRQMKALYFISPTPKSVDCFLRDFGSKSEKKYKAAYIYFTDFCPDSLFNKIKASCSKSIRRCKEINISFIPQESQVYTLDVPDAFYYCYSPDPSNASRKEVVMEAMAEQIVTVCATLDENPGVRYKSKPLDNASKLAQLVEKKLEDYYKIDEKGLIKGKTQSQLLIIDRGFDPVSTVLHELTFQAMAYDLLPIENDTYKYKTDGKEKEAVLEEDDDLWVRVRHRHIAVVLEEIPKLMKEISSTKKATEGKTSLSALTQLMKKMPHFRKQISKQVVHLNLAEDCMNKFKLNIEKLCKTEQDLALGTDAEGQRVKDSMLVLLPVLLNKNHDNCDKIRAVLLYIFGINGTTEENLDRLIHNVKIEDDSDMIRNWSHLGVPIVPPSQQAKPLRKDRSAEETFQLSRWTPFIKDIMEDAIDNRLDSKEWPYCSRCPAVWNGSGAVSARQKPRTNYLELDRKNGSRLIIFVIGGITYSEMRCAYEVSQAHKSCEVIIGSTHILTPRKLLDDIKMLNKSKDKVSFKDE
chain 2: MEMEKEFEQIDKSGSWAAIYQDIRHEASDFPCRVAKLPKNKNRNRYRDVSPFDHSRIKLHQEDNDYINASLIKMEEAQRSYILTQGPLPNTCGHFWEMVWEQKSRGVVMLNRVMEKGSLKCAQYWPQKEEKEMIFEDTNLKLTLISEDIKSYYTVRQLELENLTTQETREILHFHYTTWPAFGVPESPASFLNFLFKVRESGSLSPEHGPVVVHCSAGIGRSGTFCLADTCLLLMDKRKDPSSVDIKKVLLEMRKFRMGLIQTADQLRFSYLAVIEGAKFIMGDSSVQDQWKELSHEDLEPPPEHIPPPPRPPKRILEPHNGKCREFFPNHQWVKEETQEDKDCPIKEEKGSPLNAAPYGIESMSQDTEVRSRVVGGSLRGAQAASPAKGEPSLPEKDEDHALSYWKPFLVNMCVATVLTAGAYLCYRFLFNSNT
B2: Protein-tyrosine phosphatase 1B wild type [not stated] / Munc18c (endogenous) [mouse (endogenous in 3T3-L1 and PTP1B KO adipocytes)] (parent)
chain 1: B1 chain 2 with A181D
chain 2: B1 chain 1

Where a chain is given by its changes, count along the chain named.

One experiment covers variants of B1. Put plainly: co-immunoprecipitation (IP PTP1B with FG6, IB Munc18c), band quantification. Conditions: with Protein-tyrosine phosphatase 1B substrate-trapping mutant D181A; Munc18c knockdown 3T3-L1 cells reconstituted with Y218/219F, transfected with PTP1B D/A, + insulin; read off a plot.
As to chain 1 Y218F Y219F, the response (relative to WT) came to 0.87.

Staying with this experiment, now noted: with Protein-tyrosine phosphatase 1B substrate-trapping mutant D181A; Munc18c knockdown 3T3-L1 cells reconstituted with Y218/219F, transfected with PTP1B D/A, - insulin; read off a plot.
For chain 1 Y218F Y219F, the response (relative to WT) worked out at 0.4.

The same experiment, now with this note: with Protein-tyrosine phosphatase 1B substrate-trapping mutant D181A; Munc18c knockdown 3T3-L1 cells reconstituted with Y521F, transfected with PTP1B D/A, + insulin; read off a plot.
Regarding chain 1 Y521F, the response (relative to WT) stood at 0.93.

Staying with this experiment, now noted: with Protein-tyrosine phosphatase 1B substrate-trapping mutant D181A; Munc18c knockdown 3T3-L1 cells reconstituted with Y521F, transfected with PTP1B D/A, - insulin; read off a plot.
Consider chain 1 Y521F, for which the response (relative to WT) was 0.38.

Another experiment covers variants of B2. The experiment is described as above. The following applies: with Munc18c (endogenous) [mouse (endogenous in 3T3-L1 and PTP1B KO adipocytes)]; 3T3-L1 WT adipocytes, + insulin + Vanadate; read off a plot.
For chain 1 D181A, the response (relative to WT) was 0.83.

Still in this experiment, the particulars now being: with Munc18c (endogenous) [mouse (endogenous in 3T3-L1 and PTP1B KO adipocytes)]; 3T3-L1 WT adipocytes, + insulin, NP40 lysis; read off a plot.
chain 1 D181A: the response (relative to WT) stood at 2.2.

The experiment is the same for the next values; noted with them: with Munc18c (endogenous) [mouse (endogenous in 3T3-L1 and PTP1B KO adipocytes)]; 3T3-L1 WT adipocytes, - insulin, NP40 lysis; read off a plot.
chain 1 D181A: the response (relative to WT) was 1.4.
